B1: LINE1-full (parent)
chain: UACGUAGGUGGUUUUCCCCUGAUAGUGCUAAGGGGGCCUGGAAGUUUGGACUGGGCAGAGCUCAACACAGCGUGGCAAAGUGGCUGUGGCUAGACUGCCUCUCUGGAUUCCUCGUCACUCAGCAGGGCAUCUCUGAGAGAAAUGCC

Here are results for 167 variants from the RNAGym collection of RNA variant scans (doi:10.7554/elife.90254).

The variants in the data set derive from B1. In words: self-cleavage, relative activity (ratio to wild type); higher = more cleavage; in vitro, sequencing; the parent is a self-cleaving ribozyme.
Take C113U G144A: the self-cleavage worked out at 0.31.

With U112C U143C, the self-cleavage came out at 1.54.

Take U112C U143A: the self-cleavage was 1.59.

Take G114A A140G: the self-cleavage is 1.14.

With G114A A140C, the self-cleavage was 1.27.

For G114A A140U, the self-cleavage turned out to be 1.55.

Take C113A A141G: the self-cleavage worked out at 1.23.

For C113U A124U, the self-cleavage was determined as 1.3.

Regarding U112A A124U, the self-cleavage was 1.61.

Take A117C C128U: the self-cleavage was determined as 1.3.

Consider G114A A136G, for which the self-cleavage came out at 1.28.

Turning to U115C U119G, the self-cleavage came to 2.63.

With U115C U119A, the self-cleavage worked out at 1.78.

As for G114A U132C, the self-cleavage came to 1.45.

With U115A U134C, the self-cleavage was found to be 1.49.

Consider G114U A141U, for which the self-cleavage was 1.61.

As to C111U U134C, the self-cleavage was 2.26.

U112G C128U: the self-cleavage came to 2.54.

Turning to C113A C145U, the self-cleavage stood at 1.25.

C113A A117U: the self-cleavage came out at 1.03.

Turning to U115A A141U, the self-cleavage came to 0.53.

As to U115G A121G, the self-cleavage amounted to 1.62.

As for C113A A121G, the self-cleavage was 1.25.

For the variant U112C U132C, the self-cleavage worked out at 1.28.

U112C A138G: the self-cleavage was determined as 1.58.

Take U112C A138C: the self-cleavage is 1.98.

For U112G A136G, the self-cleavage amounted to 2.3.

For the variant U112G A136U, the self-cleavage was 0.88.

For C110U A142G, the self-cleavage was determined as 2.11.

As for U112A U132C, the self-cleavage turned out to be 1.42.

U115C A142U: the self-cleavage was found to be 1.56.

On to U115C A142C, for which the self-cleavage came to 2.05.

For the variant U112C A140U, the self-cleavage stood at 1.29.

Take U115A C131U: the self-cleavage is 1.65.

As for C113G, the self-cleavage amounted to 1.58.

Regarding C113A, the self-cleavage was 1.01.

As for C113U, the self-cleavage was 0.98.

Turning to U115C A117U, the self-cleavage amounted to 1.79.

In the case of C113U A138U, the self-cleavage was determined as 1.21.

For C113U A138G, the self-cleavage was 1.54.

On to U115C G126A, for which the self-cleavage was found to be 1.85.

For U112A A140G, the self-cleavage was determined as 1.46.

In the case of U115G U143C, the self-cleavage amounted to 1.86.

In the case of C113A U143C, the self-cleavage came to 0.76.

Consider U112C A129G, for which the self-cleavage was 1.42.

As for U115C G144C, the self-cleavage came to 2.13.

Take U115A U130C: the self-cleavage was 1.62.

Take U115C A138U: the self-cleavage worked out at 1.64.

In the case of G114A U130C, the self-cleavage came to 1.42.

On to U115C U130A, for which the self-cleavage turned out to be 1.78.

With U115C U130C, the self-cleavage was determined as 2.03.

Regarding C113U A136G, the self-cleavage stood at 1.58.

For A117C G144U, the self-cleavage came out at 1.13.

Take C110G A141G: the self-cleavage turned out to be 1.37.

As for U115C C116U, the self-cleavage was 1.18.

Take C116A A141U: the self-cleavage is 1.47.

Consider U115A A121U, for which the self-cleavage is 1.5.

For U115A A121G, the self-cleavage was found to be 1.47.

On to C113U U143A, for which the self-cleavage stood at 1.1.

Regarding G114A U119A, the self-cleavage turned out to be 1.26.

On to G114A U143A, for which the self-cleavage amounted to 0.68.

On to G114A U143G, for which the self-cleavage came to 1.41.

Turning to G114A U143C, the self-cleavage worked out at 1.02.

As to C116A A138G, the self-cleavage was determined as 1.52.

With U112C U119C, the self-cleavage stood at 1.6.

As for U115A C133U, the self-cleavage is 1.04.

In the case of C110U C113A, the self-cleavage is 1.35.

As for C110U U112C, the self-cleavage is 2.13.

Take U112C U130C: the self-cleavage amounted to 1.61.

For U112C U130G, the self-cleavage worked out at 1.56.

Turning to C111U A121C, the self-cleavage was 1.54.

Regarding C111U C116A, the self-cleavage was determined as 1.37.

U115C C145A: the self-cleavage is 1.84.

On to U112C A117U, for which the self-cleavage came out at 1.39.

In the case of U112C A117G, the self-cleavage was 1.42.

As to A117C A138G, the self-cleavage came to 2.04.

Take A117C A138U: the self-cleavage turned out to be 2.44.

With U115A G127A, the self-cleavage worked out at 1.21.

With U115A C123A, the self-cleavage turned out to be 1.7.

Turning to C111U U115A, the self-cleavage came to 1.77.

As to C113A A142G, the self-cleavage is 0.47.

U115C C123A: the self-cleavage came out at 1.49.

On to U115C G135A, for which the self-cleavage is 2.23.

For the variant G114U U134A, the self-cleavage amounted to 1.09.

U115C C146G: the self-cleavage was 1.93.

With U115C C146U, the self-cleavage was 1.31.

Turning to C111U A138G, the self-cleavage was determined as 2.01.

Consider U115C A129U, for which the self-cleavage was 2.01.

Regarding U115C A129C, the self-cleavage was determined as 1.68.

For C116U, the self-cleavage worked out at 1.29.

For C116A, the self-cleavage came out at 1.16.

With U115C U132C, the self-cleavage came out at 1.84.

For the variant U115C U132A, the self-cleavage worked out at 2.4.

Turning to U112A A117U, the self-cleavage was 1.36.

On to G114C A142G, for which the self-cleavage was determined as 1.78.

U112C A124U: the self-cleavage amounted to 1.21.

As for U115C A124G, the self-cleavage came to 1.13.

On to U115C A124U, for which the self-cleavage was 1.69.

As for G114A A124C, the self-cleavage was 1.62.

With G114A A124G, the self-cleavage is 1.5.

For U112A A142C, the self-cleavage was 1.46.

For the variant U112A A142G, the self-cleavage amounted to 1.57.

Consider C113U G135A, for which the self-cleavage amounted to 1.18.

Take C116U A124G: the self-cleavage was found to be 1.11.

As to U115G A129U, the self-cleavage was determined as 1.34.

For U115A U119C, the self-cleavage amounted to 2.02.

As for U112C A121G, the self-cleavage turned out to be 1.71.

Consider U112C A121U, for which the self-cleavage was 1.09.

For the variant C111U G114A, the self-cleavage was found to be 1.12.

For C116U A142G, the self-cleavage was determined as 1.27.

For the variant U115C U134A, the self-cleavage amounted to 0.9.

As to A117C A136G, the self-cleavage was determined as 1.79.

As to A117C G139A, the self-cleavage worked out at 1.65.

With C116U U130C, the self-cleavage was 0.89.

For the variant U115C G137A, the self-cleavage turned out to be 1.15.

On to U115C G137U, for which the self-cleavage turned out to be 2.16.

U112A U143A: the self-cleavage was 1.38.

As for U115C C128U, the self-cleavage amounted to 1.4.

As for G114C U115C, the self-cleavage came out at 1.24.

Take U115A A124G: the self-cleavage was 0.93.

On to C113G U143C, for which the self-cleavage came to 1.36.

On to U112C G122U, for which the self-cleavage was found to be 1.86.

As for U112C G122C, the self-cleavage came out at 1.18.

For C110U A117G, the self-cleavage was determined as 2.38.

For the variant U112C G137A, the self-cleavage is 1.17.

With U112C G137U, the self-cleavage amounted to 0.88.

With U112C A141U, the self-cleavage is 1.47.

On to C113U A121U, for which the self-cleavage was 1.53.

As to G114A C116U, the self-cleavage stood at 0.76.

With U115A C145U, the self-cleavage was found to be 1.3.

Consider C111U U130A, for which the self-cleavage was 0.93.

With C113U U132C, the self-cleavage was 0.89.

As for C110U G122A, the self-cleavage was 1.09.

For the variant U112A G144A, the self-cleavage was 1.32.

With G114A A142G, the self-cleavage came to 1.31.

As for G114A A142U, the self-cleavage stood at 1.56.

Take C110U C146U: the self-cleavage was 1.82.

On to U112C C116G, for which the self-cleavage is 2.13.

For U112A G114A, the self-cleavage turned out to be 0.38.

Regarding U115A A136U, the self-cleavage is 1.52.

Regarding G114A A121U, the self-cleavage is 1.37.

U112A A129G: the self-cleavage came to 0.98.

As to U112C C113U, the self-cleavage worked out at 1.28.

For the variant U115A A138U, the self-cleavage was determined as 1.77.

Turning to U115A A138G, the self-cleavage came out at 1.29.

Regarding U112A C113U, the self-cleavage is 1.6.

For the variant G114U A136U, the self-cleavage came out at 1.23.

G114U A136G: the self-cleavage was 1.49.

As for U115C U143C, the self-cleavage worked out at 1.61.

Regarding U115C U143A, the self-cleavage stood at 1.79.

Take U112A A136U: the self-cleavage stood at 1.67.

In the case of U112A U115A, the self-cleavage stood at 1.4.

Turning to U112C U115A, the self-cleavage was found to be 1.39.

With C111U U143C, the self-cleavage came to 1.13.

As to C113U U134A, the self-cleavage was determined as 0.47.

On to C113U U134C, for which the self-cleavage was found to be 0.97.

In the case of C110U A121U, the self-cleavage amounted to 1.43.

Regarding U115C G139U, the self-cleavage turned out to be 1.79.

Take U115C A136G: the self-cleavage came out at 1.83.

Regarding U115C A141G, the self-cleavage is 1.76.

In the case of U115A A117G, the self-cleavage was found to be 1.61.

In the case of A117C U119A, the self-cleavage was 1.77.

Take C110U A141G: the self-cleavage came out at 1.4.

Consider U112C U134G, for which the self-cleavage is 1.34.

C116U A117G: the self-cleavage is 1.61.

On to U115C G125A, for which the self-cleavage was determined as 1.82.

Take C113A A140G: the self-cleavage was 1.06.
